Patent US20030040044A1

What was measured:
[1] = biological target: αVβ3 integrin on human cells (human) (UniProt P06756)
[2] = biological target: αVβ3 integrin on human cells (human) (UniProt P06756); assay: saturation binding of 125-I ReoPro to M21 cells (express αvβ3 and αvβ5; ReoPro showed no binding to αvβ5), n = 3
[3] = biological target: αVβ3 integrin on human cells (human) (UniProt P06756); assay: saturation binding of 125-I ReoPro to M21 cells, Bmax, n = 7
[4] = biological target: αVβ3 integrin on human cells (human) (UniProt P06756); assay: saturation binding of 125-I ReoPro to A375S2 cells (express αvβ3 and αvβ5; ReoPro showed no binding to αvβ5), n = 3
[5] = biological target: αVβ3 integrin on human cells (human) (UniProt P06756); remark: listed apart in the source
[6] = biological target: αVβ3 integrin on human cells (human) (UniProt P06756); assay: saturation binding of 125-I ReoPro to A375S2 cells, Bmax, n = 6

B1: ReoPro (Fab, INN chains, looked up, V domains shown)
VH: EVQLQQSGTVLARPGASVKMSCEASGYTFTNYWMHWVKQRPGQGLEWIGAIYPGNSDTSYIQKFKGKAKLTAVTSTTSVYMELSSLTNEDSAVYYCTLYDGYYVFAYWGQGTLVTVSA
VL: EIVLTQSPVTLSVTPGDSVSLSCRASRDISNNLHWFQQTSHESPRLLIKYASQSMSGIPSRFSGSGSGTDFTLSINSVETEDFGMYFCQQTNSWPYTFGGGTKLEIK
modifications: Fab 125I label in some assays
Binder B1 has an Adhesion (%) of HUVEC to fibrin (% of adhesion without antibody) [1] of 35.8, an Adhesion (%) of HUVEC to fibrinogen (% of adhesion without antibody) [1] of 8.7 and an Adhesion (%) of HUVEC to gelatin (% of adhesion without antibody) [1] of 2.5. For the same binder, the Adhesion (%) of HUVEC to vitronectin (% of adhesion without antibody) [1] was 54.9, the Kd [2] was 10 nM and the Receptors per cell (receptors per cell) [3] was 660000. For the same binder, the Kd [4] was 22 nM, the Adhesion (%) of A375S.2 cells to fibrin (% of adhesion without antibody) [5] was 12.9 and the Adhesion (%) of A375S.2 cells to fibrinogen (% of adhesion without antibody) [5] was 6.5. The Adhesion (%) of A375S.2 cells to gelatin (% of adhesion without antibody) [5] was 6, the Adhesion (%) of A375S.2 cells to vitronectin (% of adhesion without antibody) [5] was 38.1 and the Receptors per cell (receptors per cell) [6] was 370000.
